Measured values: patent publication US20250057918A1 (YALE UNIVERSITY, published 2025)

Tests used:
[1] = biological target: T1, mouse IL-18BP (amino acids 31-194) (mouse, UniProt Q9Z0M9 29-193, biotinylated on the AviTag (BirA ligase)); experiment: SPR; KD IL-18BP / KD IL-18Rα
T1 construct: Secreted decoy receptor; made in Expi293 cells (H7 signal peptide); the stated range is the same as for the human protein; also called mIL-18BP
T1 sequence: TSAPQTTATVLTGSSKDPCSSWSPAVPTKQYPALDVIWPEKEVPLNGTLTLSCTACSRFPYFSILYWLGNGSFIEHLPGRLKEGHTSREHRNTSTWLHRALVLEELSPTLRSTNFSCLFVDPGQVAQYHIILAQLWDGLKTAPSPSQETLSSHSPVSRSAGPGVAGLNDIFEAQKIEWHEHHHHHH
Experimental: (§1) By contrast, very little binding is observed with the same variants and mIL-18BP (right). (FIG. 11B) Representative surface plasmon resonance sensorgrams between immobilized biotinylated mIL-18BP and the murine DR-IL-18 variants.
(§2) Experiments were conducted using a Biacore™ T100 (Protein analysis interaction system) and carried out at 25° C. Biotinylated IL-18Rα or TL-18BP were immobilized onto a Biacore™ biotin capture chip (Series S CAP sensor chip, GE Healthcare) to yield an Rmax of ˜50 RU (IL-18Rα) or ˜10 RU (IL-18BP). Measurements were made with serial dilutions of the IL-18 variants in HEPES buffered Saline-P+ buffer (10 mM HEPES pH 7.4, 150 mM NaCl, 0.005% surfactant P20). The surface was regenerated by three 60-see injections of regeneration buffer (3/4 (v/v) 8M guanidine hydrochloride with 1/4 (v/v) 1M sodium hydroxide). Experiments were performed in multiple channels simultaneously for increased observations. All data were analyzed with the Biacore™ T100 evaluation software version 2.0 with a 1:1 Langmuir binding model.

[2] = biological target: T1, mouse IL-18BP (amino acids 31-194); experiment: on-yeast isotherms; KD IL-18BP / KD IL-18Rα
[3] = biological target: T2, mouse IL-18Rα ectodomain (amino acids 19-329) (mouse, UniProt Q61098 19-329, biotinylated on the AviTag (BirA ligase)); experiment: flow cytometry, mIL-18Rα titrated on yeast-displayed murine IL-18 variant (binding isotherm, %Max)
T2 construct: range 19-329; Secreted from Expi293 cells (H7 signal peptide); also called mIL-18Rα; Ra
T2 sequence: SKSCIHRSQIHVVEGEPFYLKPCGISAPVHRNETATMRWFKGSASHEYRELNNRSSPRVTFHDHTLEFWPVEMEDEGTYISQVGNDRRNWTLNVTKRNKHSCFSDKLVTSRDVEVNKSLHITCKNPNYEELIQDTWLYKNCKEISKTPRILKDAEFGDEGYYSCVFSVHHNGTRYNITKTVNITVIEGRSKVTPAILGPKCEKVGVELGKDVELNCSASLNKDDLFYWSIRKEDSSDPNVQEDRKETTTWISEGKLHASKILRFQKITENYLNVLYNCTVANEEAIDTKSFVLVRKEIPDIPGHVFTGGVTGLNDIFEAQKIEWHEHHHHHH

[4] = biological target: T1, mouse IL-18BP (amino acids 31-194); experiment: SPR; KD BP / KD Ra normalized to WT IL-18
[5] = biological target: T1, mouse IL-18BP (amino acids 31-194); experiment: on-yeast isotherms; KD IL-18BP / KD IL-18Rα (10 µM used for NBD); on-yeast isotherms; 10 µM put in for NBD
[6] = biological target: T1, mouse IL-18BP (amino acids 31-194); experiment: SPR; KD BP / KD Ra normalized to WT IL-18; upper end tied to mA7 by Table 9
[7] = biological target: T1, mouse IL-18BP (amino acids 31-194); experiment: SPR; KD IL-18BP / KD IL-18Rα; SPR; ratio of two KDs
Experimental: as §1, §2

[8] = biological target: T3, human IL-18BP (amino acids 31-194) (human, UniProt O95998 31-194, biotinylated on the AviTag (BirA ligase) where immobilized or used for staining); experiment: on-yeast isotherms; BP/Rα KD ratio normalized to WT
T3 construct: Secreted decoy receptor; made in insect cells (gp67 signal peptide); also called hIL-18BP
T3 sequence: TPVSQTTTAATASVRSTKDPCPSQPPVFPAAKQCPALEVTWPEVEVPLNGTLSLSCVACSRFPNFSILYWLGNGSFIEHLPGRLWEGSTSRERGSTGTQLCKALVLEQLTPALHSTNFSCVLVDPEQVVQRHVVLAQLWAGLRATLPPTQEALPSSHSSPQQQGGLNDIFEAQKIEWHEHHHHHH
Experimental: (§3) Individual colonies of IL-18 yeast were grown overnight at 30° C. in SDCAA liquid media and induced in SGCAA liquid media for 1 day at 20° C. IL-18 display levels on yeast were verified by flow cytometry using an anti-cMyc tag antibody (anti-myc-PE; Cell Signaling Technologies). Receptor staining with biotinylated IL-18Rα (with or without IL-18Rβ) or biotinylated IL-18BP was performed in PBS supplemented with 0.5% BSA and 2 mM EDTA (PBE) on ice. All analysis was performed on a Sony SA3800 flow cytometer.
(§4) To additionally characterize the receptor binding activities of the DR-IL-18 variants, the cytokines were expressed recombinantly and surface plasmon resonance for IL-18Rα and IL-18BP was performed (see FIG. 5B for representative traces).

[9] = biological target: T4, IL-18 receptor (IL-18R) on HEK-Blue IL-18 reporter cells (UniProt Q13478 19-541; O95256 20-599, limits assumed); experiment: cell-based or functional assay
T4 sequence (looked up) 1: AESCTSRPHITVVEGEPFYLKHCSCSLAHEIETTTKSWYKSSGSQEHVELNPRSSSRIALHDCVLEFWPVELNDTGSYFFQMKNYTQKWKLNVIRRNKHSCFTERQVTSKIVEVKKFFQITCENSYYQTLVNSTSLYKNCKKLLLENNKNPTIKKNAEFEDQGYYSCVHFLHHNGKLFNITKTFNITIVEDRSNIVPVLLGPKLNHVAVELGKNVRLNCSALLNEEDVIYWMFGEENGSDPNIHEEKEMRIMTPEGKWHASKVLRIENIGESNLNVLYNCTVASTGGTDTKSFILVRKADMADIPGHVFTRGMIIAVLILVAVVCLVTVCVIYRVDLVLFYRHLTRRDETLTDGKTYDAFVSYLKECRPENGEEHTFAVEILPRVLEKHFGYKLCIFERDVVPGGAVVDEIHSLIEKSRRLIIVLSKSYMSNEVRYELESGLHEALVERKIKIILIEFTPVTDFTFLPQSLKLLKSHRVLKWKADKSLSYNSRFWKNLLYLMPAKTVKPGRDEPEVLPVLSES
T4 sequence (looked up) 2: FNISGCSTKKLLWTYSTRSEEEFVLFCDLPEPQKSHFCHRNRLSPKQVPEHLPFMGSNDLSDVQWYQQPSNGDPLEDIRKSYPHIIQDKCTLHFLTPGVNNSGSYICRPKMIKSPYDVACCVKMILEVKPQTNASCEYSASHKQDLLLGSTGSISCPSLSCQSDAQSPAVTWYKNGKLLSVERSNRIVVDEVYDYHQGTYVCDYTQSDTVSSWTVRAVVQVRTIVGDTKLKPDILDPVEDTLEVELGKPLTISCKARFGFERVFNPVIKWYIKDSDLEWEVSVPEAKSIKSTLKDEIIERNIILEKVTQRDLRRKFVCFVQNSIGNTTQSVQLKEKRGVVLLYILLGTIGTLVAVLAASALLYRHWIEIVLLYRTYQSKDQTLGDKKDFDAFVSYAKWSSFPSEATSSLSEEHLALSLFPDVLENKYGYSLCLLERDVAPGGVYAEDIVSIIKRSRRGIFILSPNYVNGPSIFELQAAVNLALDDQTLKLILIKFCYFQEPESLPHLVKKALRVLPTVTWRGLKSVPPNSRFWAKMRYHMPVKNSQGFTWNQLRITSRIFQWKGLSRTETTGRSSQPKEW

[10] = biological target: T3, human IL-18BP (amino acids 31-194); experiment: on-yeast isotherms; KD IL-18BP / KD IL-18Rα (20 µM used for NBD)
[11] = biological target: T3, human IL-18BP (amino acids 31-194); experiment: SPR; KD BP / KD Ra normalized to WT IL-18
[12] = biological target: T5, human IL-18Rα ectodomain (amino acids 19-329) (human, UniProt Q13478 19-329, biotinylated on the AviTag (BirA ligase)); experiment: on-yeast binding isotherm, flow cytometry
T5 construct: range 19-329; Secreted from insect cells (gp67 signal peptide); also called hIL-18Rα; hIL-18Ra
T5 sequence: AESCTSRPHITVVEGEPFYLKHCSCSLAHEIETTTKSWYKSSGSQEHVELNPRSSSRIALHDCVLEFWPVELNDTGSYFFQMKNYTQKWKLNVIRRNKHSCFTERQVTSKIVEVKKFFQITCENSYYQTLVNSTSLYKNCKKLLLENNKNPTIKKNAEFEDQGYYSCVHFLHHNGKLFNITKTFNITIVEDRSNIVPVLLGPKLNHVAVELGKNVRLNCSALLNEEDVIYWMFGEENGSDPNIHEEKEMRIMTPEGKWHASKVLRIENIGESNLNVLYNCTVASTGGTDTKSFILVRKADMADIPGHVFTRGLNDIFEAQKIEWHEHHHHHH
Experimental: as §3, §4

[13] = biological target: T3, human IL-18BP (amino acids 31-194); experiment: on-yeast isotherms; KD IL-18BP / KD IL-18Rα (20 µM used for NBD); on-yeast isotherms; 20 µM put in for NBD
Experimental: as §3, §4

[14] = biological target: T3, human IL-18BP (amino acids 31-194); experiment: SPR; KD IL-18BP / KD IL-18Rα; SPR; ratio of two KDs
Experimental: as §2, §4

B1: wild-type mouse IL-18 (mature form) (ligand)
chain: NFGRLHCTTAVIRNINDQVLFVDKRQPVFEDMTDIDQSASEPQTRLIIYMYKDSEVRGLAVTLSVKDSKMSTLSCKNKIISFEEMDPPENIDDIQSDLIFFQKRVPGHNKMEFESSLYEGHFLACQKEDDAFKLILKKKDENGDKSVMFTLTNLHQS
notes: recombinant from E. coli with C-terminal hexahistidine tag in SPR; also called mIL-18 WT; WT mIL-18
KD ratio: IL-18BP/IL-18Rα [1]: 0.00183
KD ratio: IL-18BP/IL-18Rα [2]: 0.188
EC50 (read off the curve) [3]: ~10 nM
IL-18 BP:Ra Dissociation Constant Ratio [4]: 1

B2: mA7 (ligand)
chain: YFGRLHCTTAVIRNINDQVLFVDKRQPVFEDMTDIDQSASEPQTRLIIYAYGDNRVRGKAVTLSVKDSKMSTLSCKNKIISFEEMDPPENIDDIQSDLIFFQKRVPGHNKMEFESSLYEGHFLACQKEDDAFKLILKKKDENGDKSVMFTLTNLHQS
notes: recombinant with C-terminal hexahistidine tag in SPR
KD ratio: IL-18BP/IL-18Rα [5]: > 741
IL-18 BP:Ra Dissociation Constant Ratio [6]: 3.5e+07
EC50 (read off the curve) [3]: ~10 nM
KD ratio: IL-18BP/IL-18Rα [7]: 63200

B3: 6-29 (ligand)
chain: YFGKLESKLSVIRNLNDQVLFIDQGNRPLFEDMTDSDCRDNAPRTIFIISKYSDSRARGLAVTISVKCEKISTLSCENKIISFKEMNPPDNIKDTKSDIIFFQRNVPGHGRKMQFESSSYEGYFLACEKERDLFKLILKKEDELGDRSIMFTVQNED
notes: recombinant with C-terminal hexahistidine tag in SPR and cell assays; also called h6-29; version 2.0 human DR-IL-18 variant
Dissociation Constant Ratio normalized to WT IL-18 [8]: > 8000
EC50 (read off the curve); HEK-Blue IL-18 SEAP reporter, OD 655 nM [9]: ~0.9 nM
KD ratio: IL-18BP/IL-18Rα [10]: 540
IL-18 BP:Ra Dissociation Constant Ratio [11]: > 7.59e+06

B4: hCS2 (ligand)
chain: YFGKLESKLSVIRNLNDQVLFIDQGNRPLFEDMTDSDCRDNAPRTIFIISTYKDKQPRAKAVTISVKCEKISTLSCENKIISFKEMNPPDNIKDTKSDIIFFQRDVPGHKHKMQFESSSYEGYFLACEKERDLFKLILKKEDELGDRSIMFTIQNED
notes: as for B2
Kd [12]: 91.5 nM
KD ratio: IL-18BP/IL-18Rα [10]: > 219

B5: hCS4 (ligand)
chain: RFGKLESKLSVIRNLNDQVLFIDQGNRPLFEDMTDSDCRDNAPRTIFIISTYRDSQPRGKAVTISVKCEKISTLSCENKIISFKEMNPPDNIKDTKSDIIFFQRNVPGHKYKMQFESSSYEGYFLACEKERDLFKLILKKEDELGDRSIMFTVQNED
notes: recombinant with C-terminal hexahistidine tag in SPR and cell assays
KD ratio: IL-18BP/IL-18Rα [13]: > 125
KD ratio: IL-18BP/IL-18Rα [14]: 41.8
IL-18 BP:Ra Dissociation Constant Ratio [11]: 32200
